In publication doi:10.1101/2025.05.22.655505 (bioRxiv, 2025):

Experiments:
[1] = target: Mpox A28 (OPG153), residues 2-361, recombinant antigen (Monkeypox virus; template GenBank …, UniProt A0A7H0DNC4); assay: ELISA
[2] = target: VACV A26 (OPG153), residues 2-361, recombinant antigen (Vaccinia virus strain IHDW (GenBank …, UniProt P24758, strain)); assay: ELISA

B1: 10M2146, human anti-A28 monoclonal antibody, IgG1 (antibody, V domains shown)
VH: EVQLVQSGAEVKKPGESLKISCKGSGYSFTTHWIGWVRQMPGEGLEWLGIIYPGDSETKYSPSFQGQVTISVDKSINTAYLHWSSLKASDTAMYFCARRPKNYYDASGYYNWLDPWGQGTLVTVSS
VL: EIQMTQSPSTLSASVGDRVTITCRASQSLSTWLAWYQQKPGKAPKLLIYKASILESGVPSRFSASGSGTEFTLTISGLQPDDFATYYCQQYNSYLGAFGQGTKVEIK
Does B1 bind [1]?
Result: binds

Does B1 bind [2]?
Result: binds
